target: Man9-V3 glycopeptide (HIV-1 (strain not stated))

Molecule	Kd [µM]
DH270.1 (antibody)	0.331
DH270.IA2 (antibody)	> 10
DH270.IA3 (antibody)	> 10
DH270.IA4 (antibody)	> 10
DH270.UCA (antibody)	> 10
DH270.6 (antibody, V domains shown) VH: QVQLVQSGAQMKNPGASVKVSCAPSGYTFTDFYIHWLRQAPGQGLQWMGWMNPQTGRTNTARNFQGRVTMTRDTSIGTAYMELRSLTSDDTAIYYCTTGGWISLYYDSSYYPNFDHWGQGTLLTVSS VL: QSALTQPASVSGSPGQSITISCTGTKYDVGSHDLVSWYQQYPGKVPKYMIYEVNKRPSGVSNRFSGSKSGNTASLTISGLRAEDEADYYCCSFGGSATVVCGGGTKVTVL	0.188

— PMC5562350
